From paper PMC12707363

Experiments:
[1] = SEC; analytical SEC (AdvanceBio SEC 200 Å) of the purified Int^N precursor alone; each protein diluted to 10 µM and incubated for 24 h at 15 °C before the run; monomer against soluble high-MW aggregates eluting at the void volume
[2] = SEC; SEC of the Int^N precursors with the native single cysteine (Figure S3c), no reducing agent; conditions not shown

MBP‐CP21^N(C43S)‐H6
percent soluble high-MW aggregates [1]: 77%

MBP‐CP21^N‐H6
percent aggregated species [2]: 90%

MBP‐GOM^N(C57S)‐H6
percent soluble high-MW aggregates [1]: 76%

MBP‐GOM^N‐H6
percent aggregated species [2]: 78%
